# Data taken from paper PMC10279700, “Structural insights into regulation of the PEAK3 pseudokinase scaffold by 14-3-3” (Nature Communications, 2023).
# Where a chain is given by its changes, count along the chain named. Names may count otherwise.
# T1: endogenous 14-3-3, P62258
# T1 chain: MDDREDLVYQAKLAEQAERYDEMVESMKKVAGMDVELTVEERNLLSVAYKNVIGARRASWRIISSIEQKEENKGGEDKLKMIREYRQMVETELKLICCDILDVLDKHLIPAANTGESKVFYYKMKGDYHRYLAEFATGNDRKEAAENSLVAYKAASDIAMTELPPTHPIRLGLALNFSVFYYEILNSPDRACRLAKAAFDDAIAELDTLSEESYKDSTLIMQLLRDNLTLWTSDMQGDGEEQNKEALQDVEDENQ
# B1: FLAG-tagged WT PEAK3, Q6ZS72 S69A (protein)
# chain: MSSPEPPTEPPEPDNPTWSTQPTYSNLGQIRAHLLPSKACRLRTPGSLSTNPEPLPPPLPKKILTRTQALPTRRTLHPSSIQVQPPRRPFLGSHSVDKSQAAVGPACLPAELTFGPADAPLGLSLRDLHSPEAVHTALAARQLQGLRTIYARLRARLMGGHPGPCHPGHSFRLLDSSPCAESGDALYYRVVRAHEDAWHILVAKVPKPGADVPHPWGLELQASLSPHFNLQGLCGLVPEGTLPGAPWRGAVALAAEVPERTVAQWLAEACTQPPEEFVWAVALLLLQLSAALKFLEAWGAALVELRPENLLLVAPRGCATTGPPRLLLTDFGRVCLQPPGPPGSPGPHAPQLGSLLRALLSLAAPSTTPLAAGLELLAAQLTRLRPSASRTRGALQALLWGPGPELRGRGAPLGPWLRALGPWLRVRRGLLVLRLAERAAGGEAPSLEDWLCCEYLAEATESSMGQALALLWD
# B2: FLAG-tagged WT PEAK3, Q6ZS72 K293A (protein)
# chain: B1 chain with A69S, K293A
# B3: FLAG-tagged WT PEAK3, Q6ZS72 W298A (protein)
# chain: B1 chain with A69S, W298A
# B4: FLAG-tagged WT PEAK3, Q6ZS72 S225A (protein)
# chain: B1 chain with A69S, S225A
# B5: FLAG-tagged WT PEAK3, Q6ZS72 K293A; W298A (protein)
# chain: B1 chain with A69S, K293A, W298A
# B6: FLAG-tagged full-length human PEAK3 (PEAK3-1xFLAG) (natural protein, UniProt Q6ZS72 1-473, looked up)
# chain: B1 chain with A69S
# modifications: phosphoserine at 69
# notes: PEAK3 pseudokinase (C19orf35), human, gene synthesized by GenScript; residues modelled: chain A 128-406, 419-473; chain B 130-406, 415-472; N-terminal peptides chain E 66-73 and chain P 66-72; Purifies as a homodimer, alone or in complex with an endogenous 14-3-3 heterodimer; also called C19orf35; PEAK3 homodimer; source: Expi293F, transfected, purified (G1 Flag resin, FLAG peptide elution, …)
# B7: 14-3-3β (natural protein, human (endogenous in Expi293F), UniProt P31946 1-246, looked up)
# chain: MTMDKSELVQKAKLAEQAERYDDMAAAMKAVTEQGHELSNEERNLLSVAYKNVVGARRSSWRVISSIEQKTERNEKKQQMGKEYREKIEAELQDICNDVLELLDKYLIPNATQPESKVFYLKMKGDYFRYLSEVASGDNKQTTVSNSQQAYQEAFEISKKEMQPTHPIRLGLALNFSVFYYEILNSPEKACSLAKTAFDEAIAELDTLNEESYKDSTLIMQLLRDNLTLWTSENQGDEGDAGEGEN
# notes: 14-3-3 protein beta, human; residues 3-232 modelled in the cryo-EM structure; also called 14-3-3 beta; β isoform; source: endogenous, Expi293F, co-purified with PEAK3-1xFLAG
# How the values were obtained:
# [1] = molecular target: FLAG-tagged PEAK3 R147A (human) (UniProt Q6ZS72); experiment: co-IP; FLAG-tagged PEAK3 variants transiently expressed in HEK293; anti-FLAG/protein A beads overnight at 4 °C; endogenous 14-3-3 detected with anti-pan 14-3-3 by Western blot; also after 1 h of 0.1% DMSO or PKD inhibitors CRT0066101 or CID755673 (dose-dependent decrease, not abolished)
# [2] = molecular target: T1, endogenous 14-3-3, P62258; experiment: co-immunoprecipitation, quantified Western blot; settings: chain shown with the change; transiently expressed in HEK293 cells; 3 independent experiments; parent: est. 100; read off a plot
# [3] = molecular target: the molecule itself; experiment: cryo-EM structure; PEAK3/14-3-3 complex co-purified from Expi293F (FLAG affinity, SEC), 7 uM, 0.1% n-Octyl-β-D-glucoside; 169,563 particles, C1, 3.1 Å
# [4] = molecular target: B6; experiment: as above; settings: both partners purified
percent of parent [2],Molecule,further results
,endogenous 14-3-3 (from UniProt P62258 1-255) (FLAG-tagged variant transiently expressed in HEK293),reduction in 14-3-3 association relative to WT PEAK3 [1]: 75%
0,B1,
62,B2,
57,B3,
82,B4,
43,B5,
,B6,stoichiometry N [3]: 2
,B7,binding result [4]: binds
